Reference: article PMC7260706

Biological target: T1, RelE (UniProt P0C077 1-95)
T1 sequence: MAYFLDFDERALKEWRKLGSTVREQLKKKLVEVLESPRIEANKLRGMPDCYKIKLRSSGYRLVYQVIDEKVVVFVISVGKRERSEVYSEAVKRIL
Assay: intrinsic protein fluorescence

## GGCAAGGAGGUAAAAAUGUAGAAAAACAAU (ssRNA) [unmodified mRNA]
  binding result: binds
